Laboratory results from publication PMC8726653, “TNF-induced necroptosis initiates early autophagy events via RIPK3-dependent AMPK activation, but inhibits late autophagy” (Autophagy, 2021).

Target: T1, His-AMPK [His-HsPRKAA1 (11–559) + HsPRKAB2 (1–272) + HsPRKAG1 (1–331)] (human, UniProt Q13131 11-559; O43741 1-272; P54619 1-331)
T1 construct: also called DU32489; source: obtained: MRC PPU Reagents and Services, University of Dundee (DU32489); copies: + +
Assay: pull-down; 4 µg GST-MmRIPK3 (or GST) on glutathione-Sepharose beads incubated with 1 µg His-AMPK overnight at 4°C in 0.5% Nonidet P-40 buffer (50 mM Tris pH 8.0, 100 mM NaCl, 6 mM EDTA, 6 mM EGTA, 1 mM DTT); blot for AMPK and GST
Details: both partners purified

T1 sequence (Q13131 11-559, chain 1 of 3): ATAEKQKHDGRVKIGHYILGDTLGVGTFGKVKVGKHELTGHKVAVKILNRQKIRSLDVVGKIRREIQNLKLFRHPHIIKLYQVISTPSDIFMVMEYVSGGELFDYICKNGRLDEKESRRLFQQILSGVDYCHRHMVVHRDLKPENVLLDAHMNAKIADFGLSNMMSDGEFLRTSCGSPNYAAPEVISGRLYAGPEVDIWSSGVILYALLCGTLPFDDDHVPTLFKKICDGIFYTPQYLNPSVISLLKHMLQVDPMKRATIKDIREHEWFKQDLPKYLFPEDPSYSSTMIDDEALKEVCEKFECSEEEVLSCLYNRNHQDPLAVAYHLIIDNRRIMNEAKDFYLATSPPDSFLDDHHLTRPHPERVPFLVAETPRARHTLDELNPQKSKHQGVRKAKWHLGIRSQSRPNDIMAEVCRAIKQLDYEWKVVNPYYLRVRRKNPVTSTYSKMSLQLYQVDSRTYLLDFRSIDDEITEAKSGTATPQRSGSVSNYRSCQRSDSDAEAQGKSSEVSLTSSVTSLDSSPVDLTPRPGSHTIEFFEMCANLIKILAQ
T1 sequence (O43741 whole entry, chain 2 of 3): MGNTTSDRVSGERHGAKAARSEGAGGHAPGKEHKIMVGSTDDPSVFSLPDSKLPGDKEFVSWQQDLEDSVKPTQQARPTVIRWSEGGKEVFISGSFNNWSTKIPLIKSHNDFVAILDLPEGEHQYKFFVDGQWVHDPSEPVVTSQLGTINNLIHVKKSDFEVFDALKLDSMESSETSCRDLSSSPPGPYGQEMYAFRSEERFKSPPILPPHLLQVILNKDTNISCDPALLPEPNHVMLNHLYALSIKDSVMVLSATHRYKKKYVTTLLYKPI
T1 sequence (P54619 whole entry, chain 3 of 3): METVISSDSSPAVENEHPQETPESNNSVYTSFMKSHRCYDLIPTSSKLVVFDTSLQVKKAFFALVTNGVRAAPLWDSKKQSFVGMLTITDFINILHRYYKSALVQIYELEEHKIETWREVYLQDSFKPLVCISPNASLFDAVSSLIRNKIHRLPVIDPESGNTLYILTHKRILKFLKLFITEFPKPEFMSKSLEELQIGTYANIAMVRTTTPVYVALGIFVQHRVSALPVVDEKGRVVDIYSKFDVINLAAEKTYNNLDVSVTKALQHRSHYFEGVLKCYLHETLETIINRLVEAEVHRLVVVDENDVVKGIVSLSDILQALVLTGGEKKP

B1: GST-MmRIPK3 (enzyme, mouse, UniProt Q9QZL0 1-486, looked up)
chain: MSSVKLWPTGASAVPLVSREELKKLEFVGKGGFGVVFRAHHRTWNHDVAVKIVNSKKISWEVKAMVNLRNENVLLLLGVTEDLQWDFVSGQALVTRFMENGSLAGLLQPECPRPWPLLCRLLQEVVLGMCYLHSLNPPLLHRDLKPSNILLDPELHAKLADFGLSTFQGGSQSGSGSGSGSRDSGGTLAYLDPELLFDVNLKASKASDVYSFGILVWAVLAGREAELVDKTSLIRETVCDRQSRPPLTELPPGSPETPGLEKLKELMIHCWGSQSENRPSFQDCEPKTNEVYNLVKDKVDAAVSEVKHYLSQHRSSGRNLSAREPSQRGTEMDCPRETMVSKMLDRLHLEEPSGPVPGKCPERQAQDTSVGPATPARTSSDPVAGTPQIPHTLPFRGTTPGPVFTETPGPHPQRNQGDGRHGTPWYPWTPPNPMTGPPALVFNNCSEVQIGNYNSLVAPPRTTASSSAKYDQAQFGRGRGWQPFHK
notes: cDNA amplified from pBOB-FLAG-MmRIPK3 and inserted into pGEX-5X-3; also called recombinant RIPK3; source: E. coli BL21 (DE3), purified on glutathione sepharose 4B beads
Question: Does B1 bind?
Answer: Result: binds
